{"source": "patent US20180087116", "about": "“METHODS AND BIOSENSORS FOR TUMOR DETECTION” (published 2018)", "key": {"VEGF165": {"biological_target": "VEGF165 (UniProt P15692-4 P15692-4:27-191)", "sequence (P15692 other isoform, or with tags, fused parts or gaps)": "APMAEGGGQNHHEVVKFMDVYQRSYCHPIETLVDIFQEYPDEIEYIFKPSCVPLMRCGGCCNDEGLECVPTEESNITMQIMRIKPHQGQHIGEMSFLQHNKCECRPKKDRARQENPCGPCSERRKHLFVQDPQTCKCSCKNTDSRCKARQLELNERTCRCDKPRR", "experiment": "methylene blue release from aptamer/nanomotor, fluorescence increase; linear response 2.5-30 nM VEGF165; human serum samples or PBS, 40 min", "settings": "chain copies: 2; label: methylene blue (non-covalently adsorbed)", "experimental": "(§1) In this example, the fabricated MB/aptamer/nanomotors of EXAMPLE 1 were guided by a magnetic field into solutions (human serum samples) containing various concentration of VEGF165 to react with the fabricated MB/aptamer/nanomotor for about 40 minutes. MB can specifically bind with guanine bases in ss-DNA and the used aptamer herein as a type of ss-DNA riches of guanine bases. The fabricated MB/aptamer/nanomotors were stored at about 4° C. in the refrigerator when they were not in use. Then, the MB/aptamer/nanomotors biosensor was guided to solutions containing the various concentration of VEGF165 tumor marker. Upon exposing MB/aptamer/nanomotor with VEGF165, the adsorbed MB to aptamers released to the solution and let to increase the fluorescence signal of MB. The proposed nanomotor may be used for ‘on-the-fly’ interaction of biological targets such as VEGF165 by functionalizing the gold surface of the nanomotor with various bio-receptors.\nIn FIG. 6B, relative fluorescence changes are calculated by F/F0, where F0 (7.8) and F are the fluorescence intensity without and with VEGF165, respectively, and excitation wavelength was 625 nm."}, "[1]": {"biological_target": "Human serum albumin (HSA) (Homo sapiens, UniProt P02768 P02768:25-609)", "sequence (P02768 25-609, one chain of several)": "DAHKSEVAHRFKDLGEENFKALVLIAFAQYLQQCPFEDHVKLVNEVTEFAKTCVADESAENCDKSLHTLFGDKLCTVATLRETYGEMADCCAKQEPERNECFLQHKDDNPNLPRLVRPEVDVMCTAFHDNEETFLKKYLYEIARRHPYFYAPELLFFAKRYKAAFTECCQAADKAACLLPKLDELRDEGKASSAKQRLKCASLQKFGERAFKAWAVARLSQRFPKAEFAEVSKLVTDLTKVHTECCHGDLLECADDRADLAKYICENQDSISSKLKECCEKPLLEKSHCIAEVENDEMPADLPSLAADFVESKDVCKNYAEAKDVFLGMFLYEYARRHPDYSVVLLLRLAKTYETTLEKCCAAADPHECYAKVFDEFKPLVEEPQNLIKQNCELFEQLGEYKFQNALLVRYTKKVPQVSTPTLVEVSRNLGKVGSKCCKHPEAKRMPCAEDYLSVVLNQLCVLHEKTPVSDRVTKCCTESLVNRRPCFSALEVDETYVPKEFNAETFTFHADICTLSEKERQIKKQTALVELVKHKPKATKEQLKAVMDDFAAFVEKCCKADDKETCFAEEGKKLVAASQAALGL", "experiment": "selectivity control, 20 nM HSA in PBS; methylene blue release fluorescence; values only in figure", "settings": "label: methylene blue (non-covalently adsorbed)", "experimental": "as §1\nIn addition, to evaluate the selectivity of the proposed biosensor, some of bio-molecules such as human serum albumin (HSA), bovine serum albumin (BSA), glucose (G), urea (U), dopamine (D) and human immunoglobulin G (HIgG) were used as the potential interferences to evaluate the specificity and the results were shown in FIG. 7."}}, "data": [{"binder": "TTTCCCGTCTTCCAGACAAGAGTGCAGGG (ssDNA, 5'-SH (thiol), immobilised on Au segment of nanomotor)", "note": "[anti-VEGF DNA aptamer]", "values": [{"measurement": "binding result", "setting": "VEGF165", "value": "binds"}, {"measurement": "binding result", "setting": "[1]", "value": "no binding"}]}]}
